Source: PMC4278837, “A Cyclic Peptidic Serine Protease Inhibitor: Increasing Affinity by Increasing Peptide Flexibility” (PLoS ONE, 2014)
pKd, pKi: −log10 of the molar value. One block for each substance: values may come before it.

Assays:
[1] = target: huPA-H99Y (full length human urokinase-type plasminogen activator with H99Y) (human); test: enzyme inhibition (steady state, chromogenic substrate S-2444); about 2 nM enzyme (purified or conditioned medium of transfected cells) pre-incubated 15 min with varied peptide in HBS (10 mM HEPES pH 7.4, 140 mM NaCl) with 0.1% BSA at 37°C; substrate about KM; fit for competitive inhibition; highest peptide concentration 400 µM
[2] = target: huPA-H99Y (full length human urokinase-type plasminogen activator with H99Y) (human); test: SPR; Biacore T200; uPA variant amine-coupled to a CM5 chip (about 500 RU); peptides injected in HBS with 0.1% BSA, 30 µL/min, 25°C, pH 7.4; 1:1 kinetic fit; KD = koff/kon
huPA-H99Y-R35A (human) = test: enzyme inhibition (steady state, chromogenic substrate S-2444); about 2 nM enzyme (purified or conditioned medium of transfected cells) pre-incubated 15 min with varied peptide in HBS (10 mM HEPES pH 7.4, 140 mM NaCl) with 0.1% BSA at 37°C; substrate about KM; fit for competitive inhibition; highest peptide concentration 400 µM
huPA-H99Y-Q192A (human) = test: as above
huPA-H99Y-V41A (human) = test: as above
huPA-H99Y-K143A (human) = test: as above
[3] = target: recombinant catalytic domain of huPA-H99Y (residues 159-411) (human) (UniProt P00749); test: ITC; MicroCal ITC200; peptide injected into 5-50 µM huPA-H99Y catalytic domain; 20 mM sodium phosphate pH 7.4, 140 mM NaCl, 25°C; one-binding-site model

Substance: Mupain-1 P2A (peptide)
pKi [1]: < 3.00

Substance: Mupain-1 D9A (peptide)
pKd [2]: 5.85
koff [2]: 0.366 s⁻¹
kon [2]: 260000 M⁻¹ s⁻¹
pKi (huPA-H99Y-R35A (human)): 5.57
pKi (huPA-H99Y-Q192A (human)): 5.31
pKi [1]: 5.22
pKi (huPA-H99Y-V41A (human)): 5.14
pKi (huPA-H99Y-K143A (human)): 5.06
pKd [3]: 5.93
dH [3]: -37.9 kJ/mol
stoichiometry N [3]: 1.03

Substance: Mupain-1 R6A (peptide)
pKi [1]: < 3.00

Substance: Mupain-1 Y7A (peptide)
pKi [1]: 4.36

Substance: Mupain-1 L8A (peptide)
pKi [1]: 4.72

More lines, now with the values ahead:

pKi [1]: < 3.00
Substance: Mupain-1 Y4A (peptide)

pKi [1]: < 3.00
Substance: Mupain-1 S5A (peptide)

pKd [2]: 4.85
koff [2]: 0.802 s⁻¹
kon [2]: 56900 M⁻¹ s⁻¹
pKi (huPA-H99Y-R35A (human)): 4.40
pKi (huPA-H99Y-Q192A (human)): 4.48
pKi (huPA-H99Y-V41A (human)): 4.49
pKi (huPA-H99Y-K143A (human)): 4.25
pKd [3]: 5.30
dH [3]: -36.5 kJ/mol
stoichiometry N [3]: 1.09
Substance: mupain-1 (peptide)
